# ± gives the standard error. Fewer inactive variants are shown than the library holds.
# B1: glmS ribozyme (parent)
# chain: AUAAAAGCGCCAGAACUACAGAAAUGUAGUUGACGAGGAGGAGGUUUAUCGAAUUUUCGGCGGAUGCCUCCAAA
# What was measured:
# Settings in all cases: with glucosamine-6-phosphate
# glucosamine-6-phosphate [1] = variants of: B1; test: self-cleavage kobs at 40 uM GlcN6P; higher = faster cleavage; RNA array
# How it was run: (§1)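 A hybridised Cy3 probe tracked barcoded ribozyme variants, transcribed in situ by E. coli RNA polymerase on sequenced MiSeq chips, at 37 °C. The variants received 40 μM to 10 mM glucosamine-6-phosphate in HEPES/KCl/Mg(OAc)2 buffer. kobs came from decay fits and kcat and KM from weighted Michaelis–Menten fits.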
# glucosamine-6-phosphate [2] = variants of: B1; test: self-cleavage kobs at 10000 uM GlcN6P; higher = faster cleavage; RNA array
# How it was run: as §1
# glucosamine-6-phosphate [3] = variants of: B1; test: self-cleavage kobs at 160 uM GlcN6P; higher = faster cleavage; RNA array
# How it was run: as §1
# glucosamine-6-phosphate [4] = variants of: B1; test: self-cleavage kobs at 640 uM GlcN6P; higher = faster cleavage; RNA array
# How it was run: as §1
# glucosamine-6-phosphate [5] = variants of: B1; test: self-cleavage kobs at 2500 uM GlcN6P; higher = faster cleavage; RNA array
# How it was run: as §1
Variant,self-cleavage kobs at 40 uM GlcN6P (glucosamine-6-phosphate [1]) [s⁻¹],self-cleavage kobs at 10000 uM GlcN6P (glucosamine-6-phosphate [2]) [s⁻¹],self-cleavage kobs at 160 uM GlcN6P (glucosamine-6-phosphate [3]) [s⁻¹],self-cleavage kobs at 640 uM GlcN6P (glucosamine-6-phosphate [4]) [s⁻¹],self-cleavage kobs at 2500 uM GlcN6P (glucosamine-6-phosphate [5]) [s⁻¹]
G9A G13U C50G U57A,0.000665 ± 0.00023,9.79e-05 ± 2e-05,–,–,–
G9C G32C,< 1e-05,< 1e-05,< 1e-05,< 1e-05,< 1e-05
C10A A39U U49C,< 1e-05,< 1e-05,–,–,–
C8G U31C C71A,< 1e-05,–,–,–,–
G9A C11G,< 1e-05,< 1e-05,< 1e-05,< 1e-05,< 1e-05
C8U G13C,< 1e-05,< 1e-05,< 1e-05,< 1e-05,–
C8U G35U A39U G43U,< 1e-05,–,–,< 1e-05,–
C8U G13C G51A,< 1e-05,< 1e-05,–,–,< 1e-05
C10G C68A,< 1e-05,–,–,–,–
G9U C11A A36G,< 1e-05,–,–,–,–
G9A G41U U56G,< 1e-05,< 1e-05,< 1e-05,< 1e-05,–
C10A A48G U49G,< 1e-05,< 1e-05,< 1e-05,< 1e-05,< 1e-05
C8U A33G,< 1e-05,< 1e-05,< 1e-05,< 1e-05,–
C8U A33C,< 1e-05,< 1e-05,< 1e-05,< 1e-05,< 1e-05
C8U G51A A52G G63C,< 1e-05,–,–,–,–
C10A A15U C16U C34U,< 1e-05,–,–,–,–
G9U A33G,< 1e-05,–,< 1e-05,< 1e-05,< 1e-05
G9U G41U,< 1e-05,< 1e-05,< 1e-05,< 1e-05,< 1e-05
G9U G41A,< 1e-05,< 1e-05,< 1e-05,< 1e-05,< 1e-05
C8U U65G,< 1e-05,< 1e-05,< 1e-05,< 1e-05,< 1e-05
C8U G29C C50A,< 1e-05,–,–,< 1e-05,–
C10A A33C,< 1e-05,< 1e-05,< 1e-05,< 1e-05,< 1e-05

Variant,self-cleavage kobs at 40 uM GlcN6P (glucosamine-6-phosphate [1]) [s⁻¹],self-cleavage kobs at 10000 uM GlcN6P (glucosamine-6-phosphate [2]) [s⁻¹],self-cleavage kobs at 160 uM GlcN6P (glucosamine-6-phosphate [3]) [s⁻¹],self-cleavage kobs at 640 uM GlcN6P (glucosamine-6-phosphate [4]) [s⁻¹],self-cleavage kobs at 2500 uM GlcN6P (glucosamine-6-phosphate [5]) [s⁻¹]
G9C A33U A52C,< 1e-05,–,–,–,–
C8U G9A C50G C67U,6.37e-05 ± 1.7e-05,6.88e-05 ± 1.6e-05,–,–,0.000169 ± 4.6e-05
G9A A14U C61A,< 1e-05,–,–,–,< 1e-05
C8G G40A,< 1e-05,< 1e-05,< 1e-05,–,< 1e-05
C8G G40U,< 1e-05,< 1e-05,–,< 1e-05,< 1e-05
G9A G13A,< 1e-05,–,< 1e-05,< 1e-05,< 1e-05
G9C G51C,< 1e-05,< 1e-05,< 1e-05,< 1e-05,< 1e-05
G9C C67G,< 1e-05,< 1e-05,< 1e-05,< 1e-05,< 1e-05
G9A U65C,< 1e-05,< 1e-05,< 1e-05,< 1e-05,< 1e-05
G9C C10U G44A U54A C71G,< 1e-05,–,–,–,–
G9C C10A U56A,< 1e-05,–,–,< 1e-05,< 1e-05
G9C C58G C68A,< 1e-05,–,–,–,–
G9A C10U A14U U31C G40C C70A,< 1e-05,< 1e-05,–,–,–
G9U A15U,< 1e-05,–,< 1e-05,< 1e-05,–
C8U G44C A52U C61A,< 1e-05,< 1e-05,–,–,< 1e-05
G9A C71G,< 1e-05,< 1e-05,< 1e-05,< 1e-05,< 1e-05
C8U A64U,< 1e-05,< 1e-05,< 1e-05,< 1e-05,< 1e-05
C8U A64C,< 1e-05,–,< 1e-05,< 1e-05,< 1e-05
G9A A15G,< 1e-05,2.27e-05 ± 1.1e-05,< 1e-05,< 1e-05,–
C8U A39C G41A A42C C58G A64G G66A,< 1e-05,< 1e-05,–,–,–
G9A U31G,< 1e-05,–,< 1e-05,–,< 1e-05
C10A G43U U45A,< 1e-05,–,–,< 1e-05,< 1e-05

Variant,self-cleavage kobs at 40 uM GlcN6P (glucosamine-6-phosphate [1]) [s⁻¹],self-cleavage kobs at 10000 uM GlcN6P (glucosamine-6-phosphate [2]) [s⁻¹],self-cleavage kobs at 160 uM GlcN6P (glucosamine-6-phosphate [3]) [s⁻¹],self-cleavage kobs at 640 uM GlcN6P (glucosamine-6-phosphate [4]) [s⁻¹],self-cleavage kobs at 2500 uM GlcN6P (glucosamine-6-phosphate [5]) [s⁻¹]
C10A G32A G51A,< 1e-05,–,–,–,–
G9U U49G,< 1e-05,< 1e-05,< 1e-05,< 1e-05,–
G9U C10G,< 1e-05,< 1e-05,< 1e-05,< 1e-05,< 1e-05
G9U U56G C71A,< 1e-05,–,–,–,–
G9A C10G C68U,< 1e-05,–,–,–,–
C10A G59A,< 1e-05,–,–,< 1e-05,–
G9C G29U U69A,< 1e-05,< 1e-05,< 1e-05,< 1e-05,< 1e-05
C8G G60C,< 1e-05,< 1e-05,< 1e-05,–,–
G9U A33G G38U G44U C58A,< 1e-05,–,–,–,–
C10A G38C G60U C71U,< 1e-05,–,–,–,–
G9U G32C A42U,< 1e-05,< 1e-05,–,< 1e-05,–
G9A C50A U56C C67A,< 1e-05,–,–,< 1e-05,< 1e-05
G9C U45C,< 1e-05,–,–,–,< 1e-05
C8U A12U A33C G59U C67G U69G,< 1e-05,< 1e-05,–,–,< 1e-05
C8U G63C,< 1e-05,< 1e-05,< 1e-05,< 1e-05,< 1e-05
G9A G51A,< 1e-05,< 1e-05,–,–,–
C10G C50G C58A C61A,9.48e-05 ± 2.9e-05,5.26e-05 ± 2e-05,–,–,–
C8U C11U U57G C67G,0.000617 ± 0.0003,0.000608 ± 0.00023,–,7.99e-05 ± 3.8e-05,–
G9A A33C,< 1e-05,< 1e-05,< 1e-05,< 1e-05,< 1e-05
C10G G62A,< 1e-05,< 1e-05,< 1e-05,< 1e-05,–
C8G U30A U31C,< 1e-05,< 1e-05,–,–,–
C10A A48U A52C A64G,< 1e-05,–,–,–,–

Variant,self-cleavage kobs at 40 uM GlcN6P (glucosamine-6-phosphate [1]) [s⁻¹],self-cleavage kobs at 10000 uM GlcN6P (glucosamine-6-phosphate [2]) [s⁻¹],self-cleavage kobs at 160 uM GlcN6P (glucosamine-6-phosphate [3]) [s⁻¹],self-cleavage kobs at 640 uM GlcN6P (glucosamine-6-phosphate [4]) [s⁻¹],self-cleavage kobs at 2500 uM GlcN6P (glucosamine-6-phosphate [5]) [s⁻¹]
C8G G41A,< 1e-05,< 1e-05,< 1e-05,–,< 1e-05
C8U A15G G35U C67U,< 1e-05,–,–,–,–
C10A G32A U47A,< 1e-05,–,–,–,–
G9A G43U,< 1e-05,–,< 1e-05,< 1e-05,< 1e-05
G9A G43A,< 1e-05,–,–,< 1e-05,< 1e-05
C10G G37A G66U U69G C71A,< 1e-05,–,< 1e-05,–,–
G9C G59C,< 1e-05,< 1e-05,< 1e-05,< 1e-05,< 1e-05
C8U A39U,< 1e-05,–,< 1e-05,–,< 1e-05
G9A C16G G63A A64G,< 1e-05,–,< 1e-05,< 1e-05,< 1e-05
C10G G29A G37A G38U G41C C71U,< 1e-05,< 1e-05,–,–,–
G9A C16G A52U,< 1e-05,< 1e-05,–,–,–
C8U G9A C16U C50U A52U,< 1e-05,< 1e-05,–,–,< 1e-05
C10G C61U C71A,< 1e-05,–,–,–,–
C8U G35A G59U,< 1e-05,–,–,–,–
C8U C61U,< 1e-05,< 1e-05,< 1e-05,< 1e-05,< 1e-05
C8U G43A U56C,< 1e-05,< 1e-05,–,–,–
G9U A15C U47C,< 1e-05,–,–,–,–
C8G U65C,< 1e-05,–,< 1e-05,< 1e-05,< 1e-05
G9A A14G U30A,< 1e-05,4.06e-05 ± 1.5e-05,< 1e-05,< 1e-05,–
C8G G43U,< 1e-05,–,–,< 1e-05,< 1e-05
